The source of these data is the supplement of paper PMC5998384.

Data set [1] concerns HeLa Kyoto. Kind of data set: solubility in G1/S (NP-40 vs SDS abundance) (log2 ratio); higher = more soluble. The conditions noted are these: cell cycle stage: G1/S.
The subject of data set [2] is HeLa Kyoto. Kind of data set: solubility change mitosis vs G1/S (difference of NP-40 vs SDS log2 ratios) (log2 ratio difference); higher = more soluble in mitosis.
Data set [3] concerns HeLa Kyoto. The experiment in a line: thermal stability score vs G1/S (z-score of summed log2 fold changes over temperatures); higher = more thermally stable than in G1/S.
Data set [4] has as its system HeLa Kyoto. Kind of data set: melting temperature (median over replicates), in situ; higher = more thermally stable.
Where [5] appears, read: cell cycle stage: early G1 (4.5 h after nocodazole release).
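For melting temperature (median over replicates), in situ in this document: HeLa Kyoto cells synchronized by double thymidine or nocodazole block, proteins quantified by TMT10plex mass spectrometry, three independent biological replicates.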
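For solubility change mitosis vs G1/S (difference of NP-40 vs SDS log2 ratios) in this document: synchronized HeLa Kyoto cells (double thymidine block for G1/S, nocodazole release for mitosis), protein amounts in NP-40 versus SDS lysates quantified by mass spectrometry, three biological replicates.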
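For solubility in G1/S (NP-40 vs SDS abundance) in this document: HeLa Kyoto cells arrested at G1/S by double thymidine block, proteins quantified by TMT10plex mass spectrometry in mild NP-40 versus SDS extracts, three biological replicates.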
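For thermal stability score vs G1/S (z-score of summed log2 fold changes over temperatures) in this document: synchronized HeLa Kyoto cells, proteins quantified by TMT10plex mass spectrometry, three biological replicates, mitosis taken 0.5 h after nocodazole release, G1/S directly after double thymidine block.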

As for “MILIPRMLLVLFLLLPILSSAKAQVNPAICRYPLGMSGGQIPDEDITASSQWSESTAAKYGRLDSEEGDGAWCPEIPVEPDDLKEFLQIDLHTLHFITLVGTQGRHAGGHGIEFAPMYKINYSRDGTRWISWRNRHGKQVLDGNSNPYDIFLKDLEPPIVARFVRFIPVTDHSMNVCMRVELYGCVWLDGLVSYNAPAGQQFVLPGGSIIYLNDSVYDGAVGYSMTEGLGQLTDGVSGLDDFTQTHEYHVWPGYDYVGWRNESATNGYIEIMFEFDRIRNFTTMKVHCNNMFAKGVKIFKEVQCYFRSEASEWEPNAISFPLVLDDVNPSARFVTVPLHHRMASAIKCQYHFADTWMMFSEITFQSDAAMYNNSEALPTSPMAPTTYDPMLKVDDSNTRILIGCLVAIIFILLAIIVIILWRQFWQKMLEKASRRMLDDEMTVSLSLPSDSSMFNNNRSSSPSEQGSNSTYDRIFPLRPDYQEPSRLIRKLPEFAPGEEESGCSGVVKPVQPSGPEGVPHYAEADIVNLQGVTGGNTYSVPAVTMDLLSGKDVAVEEFPRKLLTFKEKLGEGQFGEVHLCEVEGMEKFKDKDFALDVSANQPVLVAVKMLRADANKNARNDFLKEIKIMSRLKDPNIIHLLAVCITDDPLCMITEYMENGDLNQFLSRHEPPNSSSSDVRTVSYTNLKFMATQIASGMKYLSSLNFVHRDLATRNCLVGKNYTIKIADFGMSRNLYSGDYYRIQGRAVLPIRWMSWESILLGKFTTASDVWAFGVTLWETFTFCQEQPYSQLSDEQVIENTGEFFRDQGRQTYLPQPAICPDSVYKLMLSCWRRDTKNRPSFQEIHLLLLQQGDE [DDR2]”, in the data set with HeLa Kyoto [1], the “solubility in G1/S (log2)” value is -0.114. The “solubility change mitosis (log2)” value in the data set on HeLa Kyoto [2] came out at 0.0106. Besides, the thermal stability score with HeLa Kyoto [3] (setting [5]) was 0.527; in the data set with HeLa Kyoto [3] (cell cycle stage: mitosis), -1.72. Further, the results for the melting temperature with HeLa Kyoto [4] (cell cycle stage: G1/S) and in the data set with HeLa Kyoto [4] (cell cycle stage: mitosis) were 50.8 °C and 51 °C, respectively.

Take “MIPRKRYGSKNTDQGVYLGLSKTQVLSPATAGSSSSDIAPLPPPVTLVPPPPDTMSCRDRTQEFLSACKSLQTRQNGIQTNKPALRAVRQRSEFTLMAKRIGKDLSNTFAKLEKLTILAKRKSLFDDKAVEIEELTYIIKQDINSLNKQIAQLQDFVRAKGSQSGRHLQTHSNTIVVSLQSKLASMSNDFKSVLEVRTENLKQQRSRREQFSRAPVSALPLAPNHLGGGAVVLGAESHASKDVAIDMMDSRTSQQLQLIDEQDSYIQSRADTMQNIESTIVELGSIFQQLAHMVKEQEETIQRIDENVLGAQLDVEAAHSEILKYFQSVTSNRWLMVKIFLILIVFFIIFVVFLA [STX5]”: the “solubility in G1/S (log2)” value with HeLa Kyoto [1] was determined as 0.558. Further, the “solubility change mitosis (log2)” value in the data set with HeLa Kyoto [2] was -0.103. In addition, the thermal stability score with HeLa Kyoto [3] (setting [5]) was found to be 0.862; with HeLa Kyoto [3] (cell cycle stage: mitosis), 1.55. Also, the melting temperature in the data set with HeLa Kyoto [4] (cell cycle stage: G1/S) amounted to 50 °C; with HeLa Kyoto [4] (cell cycle stage: mitosis), 49.9 °C.

With “MIPVAEFKQFTEQQPAFKVLKPWWDVLAEYLTVAMLMIGVFGCTLQVTQDKIICLPNHELQENLSEAPCQQLLPRGIPEQIGALQEVKGLKNNLDLQQYSFINQLCYETALHWYAKYFPYLVVIHTLIFMVCTSFWFKFPGTSSKIEHFISILGKCFDSPWTTRALSEVSGENQKGPAATERAAATIVAMAGTGPGKAGEGEKEKVLAEPEKVVTEPPVVTLLDKKEGEQAKALFEKVKKFRMHVEEGDILYTMYIRQTVLKVCKFLAILVYNLVYVEKISFLVACRVETSEVTGYASFCCNHTKAHLFSKLAFCYISFVCIYGLTCIYTLYWLFHRPLKEYSFRSVREETGMGDIPDVKNDFAFMLHLIDQYDSLYSKRFAVFLSEVSESRLKQLNLNHEWTPEKLRQKLQRNAAGRLELALCMLPGLPDTVFELSEVESLRLEAICDITFPPGLSQLVHLQELSLLHSPARLPFSLQVFLRDHLKVMRVKCEELREVPLWVFGLRGLEELHLEGLFPQELARAATLESLRELKQLKVLSLRSNAGKVPASVTDVAGHLQRLSLHNDGARLVALNSLKKLAALRELELVACGLERIPHAVFSLGALQELDLKDNHLRSIEEILSFQHCRKLVTLRLWHNQIAYVPEHVRKLRSLEQLYLSYNKLETLPSQLGLCSGLRLLDVSHNGLHSLPPEVGLLQNLQHLALSYNALEALPEELFFCRKLRTLLLGDNQLSQLSPHVGALRALSRLELKGNRLEALPEELGNCGGLKKAGLLVEDTLYQGLPAEVRDKMEEE [LRRC8E]”, the “solubility in G1/S (log2)” value in the data set on HeLa Kyoto [1] amounted to 0.0423. In addition, in the data set on HeLa Kyoto [2], the “solubility change mitosis (log2)” value was -0.0391. Also, the thermal stability score with HeLa Kyoto [3] (setting [5]) is -1.17; in the data set with HeLa Kyoto [3] (cell cycle stage: mitosis), -1.48. For the same sequence, the melting temperature came out at 53.2 °C in the data set on HeLa Kyoto [4] (cell cycle stage: G1/S) and 53.1 °C with HeLa Kyoto [4] (cell cycle stage: mitosis).

On to “MIPVTELRYFADTQPAYRILKPWWDVFTDYISIVMLMIAVFGGTLQVTQDKMICLPCKWVTKDSCNDSFRGWAAPGPEPTYPNSTILPTPDTGPTGIKYDLDRHQYNYVDAVCYENRLHWFAKYFPYLVLLHTLIFLACSNFWFKFPRTSSKLEHFVSILLKCFDSPWTTRALSETVVEESDPKPAFSKMNGSMDKKSSTVSEDVEATVPMLQRTKSRIEQGIVDRSETGVLDKKEGEQAKALFEKVKKFRTHVEEGDIVYRLYMRQTIIKVIKFILIICYTVYYVHNIKFDVDCTVDIESLTGYRTYRCAHPLATLFKILASFYISLVIFYGLICMYTLWWMLRRSLKKYSFESIREESSYSDIPDVKNDFAFMLHLIDQYDPLYSKRFAVFLSEVSENKLRQLNLNNEWTLDKLRQRLTKNAQDKLELHLFMLSGIPDTVFDLVELEVLKLELIPDVTIPPSIAQLTGLKELWLYHTAAKIEAPALAFLRENLRALHIKFTDIKEIPLWIYSLKTLEELHLTGNLSAENNRYIVIDGLRELKRLKVLRLKSNLSKLPQVVTDVGVHLQKLSINNEGTKLIVLNSLKKMANLTELELIRCDLERIPHSIFSLHNLQEIDLKDNNLKTIEEIISFQHLHRLTCLKLWYNHIAYIPIQIGNLTNLERLYLNRNKIEKIPTQLFYCRKLRYLDLSHNNLTFLPADIGLLQNLQNLAITANRIETLPPELFQCRKLRALHLGNNVLQSLPSRVGELTNLTQIELRGNRLECLPVELGECPLLKRSGLVVEEDLFNTLPPEVKERLWRADKEQA [LRRC8A]”, for which the “solubility in G1/S (log2)” value with HeLa Kyoto [1] is -0.294. Also, in the data set on HeLa Kyoto [2], the “solubility change mitosis (log2)” value was 0.00706. In addition, the values for the thermal stability score in the data set with HeLa Kyoto [3] (setting [5]) and with HeLa Kyoto [3] (cell cycle stage: mitosis) were -0.642 and -0.308, respectively. The melting temperature is 54 °C in the data set with HeLa Kyoto [4] (cell cycle stage: G1/S) and 52.9 °C with HeLa Kyoto [4] (cell cycle stage: mitosis).

With “MISAAQLLDELMGRDRNLAPDEKRSNVRWDHESVCKYYLCGFCPAELFTNTRSDLGPCEKIHDENLRKQYEKSSRFMKVGYERDFLRYLQSLLAEVERRIRRGHARLALSQNQQSSGAAGPTGKNEEKIQVLTDKIDVLLQQIEELGSEGKVEEAQGMMKLVEQLKEERELLRSTTSTIESFAAQEKQMEVCEVCGAFLIVGDAQSRVDDHLMGKQHMGYAKIKATVEELKEKLRKRTEEPDRDERLKKEKQEREEREKEREREREERERKRRREEEEREKERARDRERRKRSRSRSRHSSRTSDRRCSRSRDHKRSRSRERRRSRSRDRRRSRSHDRSERKHRSRSRDRRRSKSRDRKSYKHRSKSRDREQDRKSKEKEKRGSDDKKSSVKSGSREKQSEDTNTESKESDTKNEVNGTSEDIKSEGDTQSN [LUC7L3]”, the “solubility in G1/S (log2)” value in the data set with HeLa Kyoto [1] is -0.95. Moreover, the “solubility change mitosis (log2)” value with HeLa Kyoto [2] came out at 0.0899. The thermal stability score with HeLa Kyoto [3] (setting [5]) worked out at 0.00947; with HeLa Kyoto [3] (cell cycle stage: mitosis) it was 2.68. Moreover, the results for the melting temperature in the data set with HeLa Kyoto [4] (cell cycle stage: G1/S) and in the data set on HeLa Kyoto [4] (cell cycle stage: mitosis) were 50.1 °C and 50.8 °C, respectively.

Regarding “MKAIKKSLTEEEYLYLDFSHQTEGCIFPLHTSVTLFLLSYCDCKIFKICLVVTKEVSRDSSLLRDDLIQDVEIQIISRQELPPIVQNCCLPAVVERSDNFCRAGLAVVLRHIIQKSYEADPLKKELLELLGFKKTCLKACAEVSQWTRLCELTIPLAIENFLRESSDQPPTIPVEILQLEKKLSEPVRVHNDDKLRRQKLKQQKADGVGPPLTKGKAKSKVHTQETSEGLDSSSKSLELKVAFSKLTVQEEPATTNREPSHIRKAKASDLPPLEHVFAEGLYFTLADIVLLPCIHHFLVIISRKFSEKLVEFPLLASWYQRIQEVPGVKTAASKCGIQFLHLPKLLTTSTEQHPNLCEVPGVEEQSDPLFIGGPRPTMAKLMEKGIEVMFSPHPCPTWTLDWNVLPAAVSPKEGKMSSDRALRKQQQLNNLVYVVTNQAKPGDRIVDFCSGGGHVGIVLAHMLPSCQVTLIENKELSLIRAKKRSDELGLSNIWFIQANMEYFTGMFNIGVALHACGVATDMVIEHCIKTRASFVTCPCCYGFIQNTSKFNFPKSEQFKKTLSYKEHMILCRFADQTAVQLPPQRRLIGKQCMCLVDLDRARAAEECGYSVQVISMEPESCSPKNNMIVGVPI [GSTCD]”, the “solubility in G1/S (log2)” value in the data set on HeLa Kyoto [1] was -0.0129. In addition, in the data set on HeLa Kyoto [2], the “solubility change mitosis (log2)” value is -0.116. Further, the thermal stability score in the data set on HeLa Kyoto [3] (setting [5]) was -0.282; in the data set on HeLa Kyoto [3] (cell cycle stage: mitosis), -1.67. Besides, the results for the melting temperature in the data set with HeLa Kyoto [4] (cell cycle stage: G1/S) and in the data set on HeLa Kyoto [4] (cell cycle stage: mitosis) were 51.7 °C and 53.4 °C, respectively.
